The record followed here is the RNAGym collection of RNA variant scans (doi:10.7554/elife.80360).

First the molecules themselves.
B1: Hairpin Ribozyme (parent)
chain: GUCCUCUUUCACGUGCGCGUGAAAGAGAGAAGUGAACCAGAGAAACACACGUUGUGGUAUAUUACCUGGUA

The variants in this series derive from B1. Put plainly: self-cleavage, relative activity (ratio to wild type); higher = more cleavage; co-transcriptional.
Consider GUCCUCUUUCACGUGCGCGUGAAAGAGAGAAGUGAACCAGAGAAAGUCACGUUGUGGUAUAUUACCUGGUA, for which the self-cleavage turned out to be 0.136.

For the variant GUCCUCUUUCACGUGCGCGUGAAAGAGAGAAGUGAACCAGAGAAAUACACGUUGUGGUAUAUUUCCUGGUA, the self-cleavage came out at 0.198. Under GUCCUCUUUCACGUGCGCGUGAAAGAGAGAAGUGAACCAGAGAAAGACACGUUGUGGUAUAGUACCUGGUA stands 0.14; under GUCCUCUUUCACGUGCGCGUGAAAGAGAGAAGUGAACCAGAGAAAGACACGUUGUGGUAUACUACCUGGUA, 0.249; under GUCCUCUUUCACGUGCGCGUGAAAGAGAGAAGUGAACCAGAGAAAAACACGUUGUGGUAUAUUACCUGCUA, 0.0874.

Turning to GUCCUCUUUCACGUGCGCGUGAAAGAGAGAAGUGAACCAGAGAAAAACACGUUGUGGUAUAUUACCUGUUA, the self-cleavage was 0.171. Regarding GUCCUCUUUCACGUGCGCGUGAAAGAGAGAAGUGAACCAGAGAAAUACACGUUGUGGUAUUUUACCUGGUA, the self-cleavage worked out at 0.267. On to GUCCUCUUUCACGUGCGCGUGAAAGAGAGAAGUGAACCAGAGAAAAACACGUUGAGGUAUAUUACCUGGUA, for which the self-cleavage worked out at 0.204. The same measure for GUCCUCUUUCACGUGCGCGUGAAAGAGAGAAGUGAACCAGAGAAAGACACGUUGUGGUAUAUUACCUGUUA: 0.105; for GUCCUCUUUCACGUGCGCGUGAAAGAGAGAAGUGAACCAGAGAAAAACACGUUGUGGUAUAUUAUCUGGUA: 0.259. Consider GUCCUCUUUCACGUGCGCGUGAAAGAGAGAAGUGAACCAGAGAAUCACACGUUGUGGUAUAUUAUCUGGUA, for which the self-cleavage came to 0.175.

With GUCCUCUUUCACGUGCGCGUGAAAGAGAGAAGUGAACCAGAGAAAGACACGUUGUGGUAUAUUCCCUGGUA, the self-cleavage came to 0.152.

Regarding GUCCUCUUUCACGUGCGCGUGAAAGAGAGAAGUGAACCAGAGAAAGACACGUUGUGGUAUAUUGCCUGGUA, the self-cleavage was found to be 0.144. With GUCCUCUUUCACGUGCGCGUGAAAGAGAGAAGUGAACCAGAGAAAGACACGUUGUGGUAUAUUUCCUGGUA, the self-cleavage worked out at 0.185.

As to GUCCUCUUUCACGUGCGCGUGAAAGAGAGAAGUGAACCAGAGAAAAACACGUUGUGGUAUAUUACCUGGCA, the self-cleavage was found to be 0.026. Consider GUCCUCUUUCACGUGCGCGUGAAAGAGAGAAGUGAACCAGAGAAAAACACGUUGUGGUAUAUUACCUGGGA, for which the self-cleavage is 0.0934.

In the case of GUCCUCUUUCACGUGCGCGUGAAAGAGAGAAGUGAACCAGAGAAAAACACGUUGUGGUAUAUUACCUGGAA, the self-cleavage came out at 0.205. Under GUCCUCUUUCACGUGCGCGUGAAAGAGAGAAGUGAACCAGAGAAAGACUCGUUGUGGUAUAUUACCUGGUA stands 0.0713.

As for GUCCUCUUUCACGUGCGCGUGAAAGAGAGAAGUGAACCAGAGAAUCACACGUUGUGGUAUAUUACCUGGUU, the self-cleavage was found to be 0.156. With GUCCUCUUUCACGUGCGCGUGAAAGAGAGAAGUGAACCAGAGAAAAACACGUUGUGGUAUAUUACAUGGUA, the self-cleavage stood at 0.0901.

As for GUCCUCUUUCACGUGCGCGUGAAAGAGAGAAGUGAACCAGAGAAAAACACGUUGUGGUAUAUUACUUGGUA, the self-cleavage turned out to be 0.15. The same measure for GUCCUCUUUCACGUGCGCGUGAAAGAGAGAAGUGAACCAGAGAAAAACACGUUGUGGUAUAUUACGUGGUA: 0.14. Under GUCCUCUUUCACGUGCGCGUGAAAGAGAGAAGUGAACCAGAGAAAGACACGUUGUGCUAUAUUACCUGGUA stands 0.0539; under GUCCUCUUUCACGUGCGCGUGAAAGAGAGAAGUGAACCAGAGAAAGACACGUUGUGAUAUAUUACCUGGUA, 0.0965; under GUCCUCUUUCACGUGCGCGUGAAAGAGAGAAGUGAACCAGAGAAUCACACGUAGUGGUAUAUUACCUGGUA, 0.151. Under GUCCUCUUUCACGUGCGCGUGAAAGAGAGAAGUGAACCAGAGAAUCACACGUGGUGGUAUAUUACCUGGUA stands 0.263. Turning to GUCCUCUUUCACGUGCGCGUGAAAGAGAGAAGUGAACCAGAGAAUCACAUGUUGUGGUAUAUUACCUGGUA, the self-cleavage is 0.123. The same measure for GUCCUCUUUCACGUGCGCGUGAAAGAGAGAAGUGAACCAGAGAAAAACACGUUGUGGUAGAUUACCUGGUA: 0.102; for GUCCUCUUUCACGUGCGCGUGAAAGAGAGAAGUGAACCAGAGAAAAACACGUUGUGGUAUAUUACCUGGUU: 0.161. For GUCCUCUUUCACGUGCGCGUGAAAGAGAGAAGUGAACCAGAGAAAAACACGUUGUGGCAUAUUACCUGGUA, the self-cleavage was determined as 0.206. Under GUCCUCUUUCACGUGCGCGUGAAAGAGAGAAGUGAACCAGAGAAAAACACGUUGUGGUAUAUUACCUUGUA stands 0.137. GUCCUCUUUCACGUGCGCGUGAAAGAGAGAAGUGAACCAGAGAAAAACACGUUGUGGUAUACUACCUGGUA: the self-cleavage was found to be 0.193. Under GUCCUCUUUCACGUGCGCGUGAAAGAGAGAAGUGAACCAGAGAAAGACACGUUGUGGUGUAUUACCUGGUA stands 0.185; under GUCCUCUUUCACGUGCGCGUGAAAGAGAGAAGUGAACCAGAGAAAGACACGUUGUGGUCUAUUACCUGGUA, 0.219. GUCCUCUUUCACGUGCGCGUGAAAGAGAGAAGUGAACCAGAGAAAGAGACGUUGUGGUAUAUUACCUGGUA: the self-cleavage was 0.0704.

Regarding GUCCUCUUUCACGUGCGCGUGAAAGAGAGAAGUGAACCAGAGAAAAACACGUUGUCGUAUAUUACCUGGUA, the self-cleavage was 0.122. For the variant GUCCUCUUUCACGUGCGCGUGAAAGAGAGAAGUGAACCAGAGAAAAACACGUUGUGGUAUGUUACCUGGUA, the self-cleavage stood at 0.0812. The same measure for GUCCUCUUUCACGUGCGCGUGAAAGAGAGAAGUGAACCAGAGAAUCACACGCUGUGGUAUAUUACCUGGUA: 0.103; for GUCCUCUUUCACGUGCGCGUGAAAGAGAGAAGUGAACCAGAGAAUCACACGGUGUGGUAUAUUACCUGGUA: 0.122; for GUCCUCUUUCACGUGCGCGUGAAAGAGAGAAGUGAACCAGAGAAAAACACGUUGUGGUAUAUGACCUGGUA: 0.092.

Consider GUCCUCUUUCACGUGCGCGUGAAAGAGAGAAGUGAACCAGAGAAUCACACGUUGUGGUAUACUACCUGGUA, for which the self-cleavage is 0.127.

For GUCCUCUUUCACGUGCGCGUGAAAGAGAGAAGUGAACCAGAGAAAAAAACGUUGUGGUAUAUUACCUGGUA, the self-cleavage was 0.127. GUCCUCUUUCACGUGCGCGUGAAAGAGAGAAGUGAACCAGAGAAAAAGACGUUGUGGUAUAUUACCUGGUA: the self-cleavage was determined as 0.211. Under GUCCUCUUUCACGUGCGCGUGAAAGAGAGAAGUGAACCAGAGAAAAAUACGUUGUGGUAUAUUACCUGGUA stands 0.138.

Consider GUCCUCUUUCACGUGCGCGUGAAAGAGAGAAGUGAACCAGAGAAAGACACGUUGUAGUAUAUUACCUGGUA, for which the self-cleavage turned out to be 0.127. The same measure for GUCCUCUUUCACGUGCGCGUGAAAGAGAGAAGUGAACCAGAGAAAGACACGUUGUCGUAUAUUACCUGGUA: 0.123; for GUCCUCUUUCACGUGCGCGUGAAAGAGAGAAGUGAACCAGAGAAAGACACGUUGUUGUAUAUUACCUGGUA: 0.173. The same measure for GUCCUCUUUCACGUGCGCGUGAAAGAGAGAAGUGAACCAGAGAAUCACACGUUGUGGUAUAUUACCUCGUA: 0.202; for GUCCUCUUUCACGUGCGCGUGAAAGAGAGAAGUGAACCAGAGAAAAACUCGUUGUGGUAUAUUACCUGGUA: 0.149. The same measure for GUCCUCUUUCACGUGCGCGUGAAAGAGAGAAGUGAACCAGAGAAAAACGCGUUGUGGUAUAUUACCUGGUA: 0.0498. Regarding GUCCUCUUUCACGUGCGCGUGAAAGAGAGAAGUGAACCAGAGAAAUACACGUUGUGGUUUAUUACCUGGUA, the self-cleavage was found to be 0.149.

For GUCCUCUUUCACGUGCGCGUGAAAGAGAGAAGUGAACCAGAGAAAUACACGUUGUGGUGUAUUACCUGGUA, the self-cleavage came out at 0.112.

GUCCUCUUUCACGUGCGCGUGAAAGAGAGAAGUGAACCAGAGAAAGACACGUUGCGGUAUAUUACCUGGUA: the self-cleavage was 0.151. In the case of GUCCUCUUUCACGUGCGCGUGAAAGAGAGAAGUGAACCAGAGAAUCACACGUUGUGUUAUAUUACCUGGUA, the self-cleavage worked out at 0.166. Under GUCCUCUUUCACGUGCGCGUGAAAGAGAGAAGUGAACCAGAGAAAUACACGUUGUGGUAUAUUACCUGGUU stands 0.121.

Consider GUCCUCUUUCACGUGCGCGUGAAAGAGAGAAGUGAACCAGAGAAUCAGACGUUGUGGUAUAUUACCUGGUA, for which the self-cleavage stood at 0.14.

Turning to GUCCUCUUUCACGUGCGCGUGAAAGAGAGAAGUGAACCAGAGAAAAACACGUUGUGGUAUAUUACCGGGUA, the self-cleavage was 0.142. Turning to GUCCUCUUUCACGUGCGCGUGAAAGAGAGAAGUGAACCAGAGAAAAACACGUUGUGGUAUAUUACCCGGUA, the self-cleavage turned out to be 0.11. Under GUCCUCUUUCACGUGCGCGUGAAAGAGAGAAGUGAACCAGAGAAUCACACGUUGUCGUAUAUUACCUGGUA stands 0.198. As for GUCCUCUUUCACGUGCGCGUGAAAGAGAGAAGUGAACCAGAGAAUUACACGUUGUGGUAUAUUACCUGGUA, the self-cleavage stood at 0.12. Regarding GUCCUCUUUCACGUGCGCGUGAAAGAGAGAAGUGAACCAGAGAAUCACACGUUGUGGUAUAUUACCUGCUA, the self-cleavage turned out to be 0.0735. Regarding GUCCUCUUUCACGUGCGCGUGAAAGAGAGAAGUGAACCAGAGAAAAACACGUGGUGGUAUAUUACCUGGUA, the self-cleavage is 0.159.

Turning to GUCCUCUUUCACGUGCGCGUGAAAGAGAGAAGUGAACCAGAGAAAAACACGUCGUGGUAUAUUACCUGGUA, the self-cleavage is 0.148. The same measure for GUCCUCUUUCACGUGCGCGUGAAAGAGAGAAGUGAACCAGAGAAAAACACGUAGUGGUAUAUUACCUGGUA: 0.139; for GUCCUCUUUCACGUGCGCGUGAAAGAGAGAAGUGAACCAGAGAAAAACAGGUUGUGGUAUAUUACCUGGUA: 0.159. Under GUCCUCUUUCACGUGCGCGUGAAAGAGAGAAGUGAACCAGAGAAAAACAAGUUGUGGUAUAUUACCUGGUA stands 0.117; under GUCCUCUUUCACGUGCGCGUGAAAGAGAGAAGUGAACCAGAGAAUCACACGUUGUGGUAAAUUACCUGGUA, 0.147; under GUCCUCUUUCACGUGCGCGUGAAAGAGAGAAGUGAACCAGAGAAUCACACGUUGUGGUAGAUUACCUGGUA, 0.188. Under GUCCUCUUUCACGUGCGCGUGAAAGAGAGAAGUGAACCAGAGAAAGACACGUUGUGGUAUAUUACCAGGUA stands 0.094; under GUCCUCUUUCACGUGCGCGUGAAAGAGAGAAGUGAACCAGAGAAAGACACGUUGUGGUAUAUUAGCUGGUA, 0.078.

Take GUCCUCUUUCACGUGCGCGUGAAAGAGAGAAGUGAACCAGAGAAUCACACGUUGUGGUAUAUUACCAGGUA: the self-cleavage came out at 0.0841. The same measure for GUCCUCUUUCACGUGCGCGUGAAAGAGAGAAGUGAACCAGAGAAAGACACGUUGUGGUAUAUUACCUGGUU: 0.211; for GUCCUCUUUCACGUGCGCGUGAAAGAGAGAAGUGAACCAGAGAAAAACACGUUGUGAUAUAUUACCUGGUA: 0.177. Under GUCCUCUUUCACGUGCGCGUGAAAGAGAGAAGUGAACCAGAGAAUCACACUUUGUGGUAUAUUACCUGGUA stands 0.209.

As to GUCCUCUUUCACGUGCGCGUGAAAGAGAGAAGUGAACCAGAGAAAAACACGCUGUGGUAUAUUACCUGGUA, the self-cleavage was found to be 0.271. With GUCCUCUUUCACGUGCGCGUGAAAGAGAGAAGUGAACCAGAGAAAAACACGGUGUGGUAUAUUACCUGGUA, the self-cleavage was determined as 0.119.
